Data as given in US20060160994A1.

Experiments:
[1] = biological target: LRP exposed on the surface of mouse fibroblast (C127) cells (mouse (mouse fibroblast cells)) (UniProt Q91ZX7); test: cell-based or functional assay
[2] = biological target: low density lipoprotein receptor-related protein (LRP), purified and immobilized (UniProt Q07954); test: SPR, LRP immobilized (8.3 fmol/mm^2), analyte 100 nM, corrected for nonspecific binding

Chain of LRP exposed on the surface of mouse fibroblast (C127) cells (mouse (mouse fibroblast cells)) (Q91ZX7 20-4545): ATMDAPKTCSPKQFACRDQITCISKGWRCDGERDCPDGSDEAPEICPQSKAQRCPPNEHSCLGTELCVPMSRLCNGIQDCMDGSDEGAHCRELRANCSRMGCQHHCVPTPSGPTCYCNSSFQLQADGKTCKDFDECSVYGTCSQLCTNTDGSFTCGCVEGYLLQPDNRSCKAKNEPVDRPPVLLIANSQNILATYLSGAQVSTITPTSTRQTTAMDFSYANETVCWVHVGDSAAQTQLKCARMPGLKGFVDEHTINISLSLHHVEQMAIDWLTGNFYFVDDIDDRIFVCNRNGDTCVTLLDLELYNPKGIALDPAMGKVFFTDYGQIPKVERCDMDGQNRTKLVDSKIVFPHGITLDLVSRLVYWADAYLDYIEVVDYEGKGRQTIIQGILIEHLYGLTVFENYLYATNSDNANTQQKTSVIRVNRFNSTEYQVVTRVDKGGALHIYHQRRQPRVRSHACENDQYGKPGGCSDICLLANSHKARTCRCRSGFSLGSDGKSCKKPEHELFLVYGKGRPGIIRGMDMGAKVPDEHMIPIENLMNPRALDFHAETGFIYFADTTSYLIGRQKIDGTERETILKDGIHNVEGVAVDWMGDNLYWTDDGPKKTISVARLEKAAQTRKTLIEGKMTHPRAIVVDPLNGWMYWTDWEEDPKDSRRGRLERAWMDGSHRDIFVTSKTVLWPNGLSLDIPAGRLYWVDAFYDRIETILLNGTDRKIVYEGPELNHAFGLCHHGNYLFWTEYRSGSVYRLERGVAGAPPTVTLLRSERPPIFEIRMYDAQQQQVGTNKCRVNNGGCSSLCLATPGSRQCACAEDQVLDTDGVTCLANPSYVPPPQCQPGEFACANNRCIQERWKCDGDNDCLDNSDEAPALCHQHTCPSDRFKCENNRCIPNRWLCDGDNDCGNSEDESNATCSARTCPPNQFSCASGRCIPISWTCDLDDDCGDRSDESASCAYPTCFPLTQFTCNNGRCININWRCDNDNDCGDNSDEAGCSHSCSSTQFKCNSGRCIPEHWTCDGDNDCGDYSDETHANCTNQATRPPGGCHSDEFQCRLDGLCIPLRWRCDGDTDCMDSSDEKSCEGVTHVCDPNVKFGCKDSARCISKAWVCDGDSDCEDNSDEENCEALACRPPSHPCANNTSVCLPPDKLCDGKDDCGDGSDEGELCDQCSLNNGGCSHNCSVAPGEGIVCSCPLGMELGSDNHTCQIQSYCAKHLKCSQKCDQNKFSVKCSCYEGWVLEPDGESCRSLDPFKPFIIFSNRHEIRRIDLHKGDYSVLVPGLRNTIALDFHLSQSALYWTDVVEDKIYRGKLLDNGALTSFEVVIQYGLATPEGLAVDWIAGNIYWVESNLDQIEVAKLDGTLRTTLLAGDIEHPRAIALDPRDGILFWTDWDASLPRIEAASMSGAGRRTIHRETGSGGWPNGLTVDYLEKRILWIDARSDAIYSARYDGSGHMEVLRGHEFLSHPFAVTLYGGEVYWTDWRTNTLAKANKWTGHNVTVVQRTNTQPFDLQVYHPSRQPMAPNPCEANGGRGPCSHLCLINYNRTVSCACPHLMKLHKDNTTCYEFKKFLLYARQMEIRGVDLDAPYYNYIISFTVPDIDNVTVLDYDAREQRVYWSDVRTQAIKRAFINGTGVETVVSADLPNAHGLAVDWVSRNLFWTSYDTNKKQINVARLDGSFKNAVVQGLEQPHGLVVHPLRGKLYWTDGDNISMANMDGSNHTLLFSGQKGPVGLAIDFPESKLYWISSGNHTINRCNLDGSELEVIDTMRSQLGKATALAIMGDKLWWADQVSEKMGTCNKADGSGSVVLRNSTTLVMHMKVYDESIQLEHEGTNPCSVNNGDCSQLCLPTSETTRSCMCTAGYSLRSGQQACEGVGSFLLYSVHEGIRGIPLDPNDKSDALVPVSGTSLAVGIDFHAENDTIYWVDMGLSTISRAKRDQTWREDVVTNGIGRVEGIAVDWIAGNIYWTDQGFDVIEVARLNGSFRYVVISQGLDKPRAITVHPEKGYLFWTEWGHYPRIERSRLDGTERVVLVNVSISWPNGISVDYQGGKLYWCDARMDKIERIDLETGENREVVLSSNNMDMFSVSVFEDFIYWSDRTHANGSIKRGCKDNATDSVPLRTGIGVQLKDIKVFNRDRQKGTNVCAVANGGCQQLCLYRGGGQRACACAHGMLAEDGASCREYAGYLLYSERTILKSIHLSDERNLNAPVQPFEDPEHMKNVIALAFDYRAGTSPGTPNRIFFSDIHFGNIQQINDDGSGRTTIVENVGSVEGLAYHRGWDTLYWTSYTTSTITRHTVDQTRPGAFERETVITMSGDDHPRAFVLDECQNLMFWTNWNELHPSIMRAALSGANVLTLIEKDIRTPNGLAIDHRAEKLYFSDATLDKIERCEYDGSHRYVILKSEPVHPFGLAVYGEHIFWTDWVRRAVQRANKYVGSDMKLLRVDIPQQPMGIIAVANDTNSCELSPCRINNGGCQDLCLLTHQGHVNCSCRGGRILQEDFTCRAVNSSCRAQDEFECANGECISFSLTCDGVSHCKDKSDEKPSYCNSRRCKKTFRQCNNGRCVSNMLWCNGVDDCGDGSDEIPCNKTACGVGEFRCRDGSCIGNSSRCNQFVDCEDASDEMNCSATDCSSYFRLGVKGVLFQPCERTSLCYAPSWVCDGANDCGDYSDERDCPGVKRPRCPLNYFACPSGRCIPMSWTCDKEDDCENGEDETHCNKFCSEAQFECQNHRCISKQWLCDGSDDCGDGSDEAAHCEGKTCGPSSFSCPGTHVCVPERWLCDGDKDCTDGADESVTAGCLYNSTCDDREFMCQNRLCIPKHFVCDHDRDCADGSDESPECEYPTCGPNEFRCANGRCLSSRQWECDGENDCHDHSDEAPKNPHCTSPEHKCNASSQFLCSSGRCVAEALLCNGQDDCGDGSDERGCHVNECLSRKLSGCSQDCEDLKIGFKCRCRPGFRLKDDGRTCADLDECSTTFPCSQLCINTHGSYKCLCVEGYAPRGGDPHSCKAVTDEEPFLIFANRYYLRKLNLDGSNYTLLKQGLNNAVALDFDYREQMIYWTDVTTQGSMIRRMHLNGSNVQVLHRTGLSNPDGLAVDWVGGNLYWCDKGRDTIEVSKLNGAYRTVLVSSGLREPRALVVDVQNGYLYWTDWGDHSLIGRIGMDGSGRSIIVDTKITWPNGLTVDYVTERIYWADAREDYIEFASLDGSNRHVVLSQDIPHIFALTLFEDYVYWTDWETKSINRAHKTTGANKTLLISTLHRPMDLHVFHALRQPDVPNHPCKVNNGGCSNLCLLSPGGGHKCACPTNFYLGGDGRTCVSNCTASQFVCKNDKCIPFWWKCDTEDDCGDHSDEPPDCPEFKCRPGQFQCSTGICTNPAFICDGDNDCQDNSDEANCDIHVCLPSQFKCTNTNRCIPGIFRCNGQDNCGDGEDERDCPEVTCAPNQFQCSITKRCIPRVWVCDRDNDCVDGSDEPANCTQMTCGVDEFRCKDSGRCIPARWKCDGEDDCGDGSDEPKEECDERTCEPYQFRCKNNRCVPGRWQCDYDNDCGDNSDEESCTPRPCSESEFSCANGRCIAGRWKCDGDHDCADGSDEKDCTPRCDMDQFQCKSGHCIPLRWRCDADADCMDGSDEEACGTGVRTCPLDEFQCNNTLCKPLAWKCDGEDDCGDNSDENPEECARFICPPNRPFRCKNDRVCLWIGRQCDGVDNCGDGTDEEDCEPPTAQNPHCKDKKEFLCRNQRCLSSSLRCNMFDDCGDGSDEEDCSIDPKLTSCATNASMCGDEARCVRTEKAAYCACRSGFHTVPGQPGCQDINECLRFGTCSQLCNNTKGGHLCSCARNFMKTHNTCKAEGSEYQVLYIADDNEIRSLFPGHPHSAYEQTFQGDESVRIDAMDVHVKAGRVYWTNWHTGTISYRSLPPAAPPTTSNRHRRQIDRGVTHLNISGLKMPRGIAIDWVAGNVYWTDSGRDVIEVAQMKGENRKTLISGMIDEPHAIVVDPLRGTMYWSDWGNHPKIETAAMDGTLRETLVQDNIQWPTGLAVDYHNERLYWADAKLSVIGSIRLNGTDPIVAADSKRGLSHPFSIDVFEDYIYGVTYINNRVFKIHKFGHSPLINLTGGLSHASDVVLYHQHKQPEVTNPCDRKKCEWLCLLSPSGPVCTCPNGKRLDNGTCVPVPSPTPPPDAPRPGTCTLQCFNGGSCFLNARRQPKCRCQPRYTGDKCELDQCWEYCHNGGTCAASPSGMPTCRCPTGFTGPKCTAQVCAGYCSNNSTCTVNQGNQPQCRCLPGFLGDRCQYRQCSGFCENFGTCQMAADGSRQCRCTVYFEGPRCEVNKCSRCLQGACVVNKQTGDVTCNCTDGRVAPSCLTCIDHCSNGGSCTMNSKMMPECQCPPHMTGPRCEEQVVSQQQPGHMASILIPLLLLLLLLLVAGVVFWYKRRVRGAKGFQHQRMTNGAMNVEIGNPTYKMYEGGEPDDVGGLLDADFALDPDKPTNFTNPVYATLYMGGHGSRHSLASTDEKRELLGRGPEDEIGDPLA

Row | Substance | Ratio +RAP/-RAP of Factor VIII expression (U/L) in medium of C127 cells, 2 h [1] | Ratio +RAP/-RAP of Factor VIII expression (U/L) in medium of C127 cells, 3 h [1] | Binding (resonance units) (resonance units) [2]
1 | normal Factor VIII (produced by stably transfected mouse fibroblast C127 cells) (from UniProt P00451 20-2351) | 3.2 | 2.3 | –
2 | heavy chain of Factor VIII (from UniProt P00451 20-1667) | – | – | 0
3 | thrombin-activated Factor VIII (from UniProt P00451 20-391; P00451 392-759; P00451 1709-2351) | – | – | 446
4 | Factor VIII, P00451 20-1667; P00451 1668-2351 | – | – | 262
